Data taken from IntAct's records for PubMed 29039417.

B1: BBSome complex member BBS2 (Homo sapiens), Q9BXC9 (parent)
chain: MLLPVFTLKLRHKISPRMVAIGRYDGTHPCLAAATQTGKVFIHNPHTRNQHVSASRVFQSPLESDVSLLSINQAVSCLTAGVLNPELGYDALLVGTQTNLLAYDVYNNSDLFYREVADGANAIVLGTLGDISSPLAIIGGNCALQGFNHEGSDLFWTVTGDNVNSLALCDFDGDGKKELLVGSEDFDIRVFKEDEIVAEMTETEIVTSLCPMYGSRFGYALSNGTVGVYDKTSRYWRIKSKNHAMSIHAFDLNSDGVNELITGWSNGKVDARSDRTGEVIFKDNFSSAIAGVVEGDYRMDGHIQLICCSVDGEIRGYLPGTAEMRGNLMDTSAEQDLIRELSQKKQNLLLELRNYEENAKAELASPLNEADGHRGIIPANTRLHTTLSVSLGNETQTAHTELRISTSNDTIIRAVLIFAEGIFTGESHVVHPSIHNLSSSICIPIVPPKDVPVDLHLKAFVGYRSSTQFHVFESTRQLPRFSMYALTSLDPASEPISYVNFTIAERAQRVVVWLGQNFLLPEDTHIQNAPFQVCFTSLRNGGHLHIKIKLSGEITINTDDIDLAGDIIQSMASFFAIEDLQVEADFPVYFEELRKVLVKVDEYHSVHQKLSADMADHSNLIRSLLVGAEDARLMRDMKTMKSRYMELYDLNRDLLNGYKIRCNNHTELLGNLKAVNQAIQRAGRLRVGKPKNQVITACRDAIRSNNINTLFKIMRVGTASS
partner: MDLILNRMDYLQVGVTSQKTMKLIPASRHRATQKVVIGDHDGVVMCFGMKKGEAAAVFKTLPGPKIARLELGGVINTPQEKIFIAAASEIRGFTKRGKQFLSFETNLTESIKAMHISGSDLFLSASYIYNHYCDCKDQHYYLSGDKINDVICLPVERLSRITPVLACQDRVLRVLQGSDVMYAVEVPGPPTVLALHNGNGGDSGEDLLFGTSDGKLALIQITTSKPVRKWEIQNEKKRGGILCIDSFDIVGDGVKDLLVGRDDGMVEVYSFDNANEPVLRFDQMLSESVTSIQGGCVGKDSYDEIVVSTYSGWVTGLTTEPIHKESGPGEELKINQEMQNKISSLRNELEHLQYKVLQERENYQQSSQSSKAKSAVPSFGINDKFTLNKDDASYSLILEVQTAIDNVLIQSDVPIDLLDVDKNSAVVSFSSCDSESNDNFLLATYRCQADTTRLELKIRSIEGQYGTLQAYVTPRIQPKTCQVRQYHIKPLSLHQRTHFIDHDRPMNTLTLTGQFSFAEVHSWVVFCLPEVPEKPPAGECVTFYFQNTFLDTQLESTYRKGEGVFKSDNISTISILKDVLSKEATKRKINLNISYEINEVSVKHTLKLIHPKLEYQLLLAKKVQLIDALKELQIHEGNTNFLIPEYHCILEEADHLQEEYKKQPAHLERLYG

Variants of: B1
Settings: with BBS7, Q8IWZ6-2

Row | Variant | effect of a mutation on the interaction
1 | V389E | with no effect
2 | L387K | disrupting interaction strength
3 | L387A | with no effect
4 | S405K | with no effect
5 | E351K | with no effect
6 | H399E | with no effect
7 | S388A | with no effect
8 | S365E | with no effect
9 | S365K | with no effect
10 | I411K | with no effect
11 | I411A | with no effect
12 | E369A | with no effect
13 | T395K | with no effect
14 | H373K | with no effect
15 | H373E | with no effect
16 | I376A | with no effect
17 | K360A | with no effect
18 | Q396E | with no effect
19 | P378E | with no effect
20 | P378A | with no effect
21 | L383A | disrupting interaction strength
22 | G375E | with no effect
23 | L391K | with no effect
24 | L391E | with no effect
25 | I404A | with no effect
26 | H384P | disrupting interaction strength

Row | Variant | effect of a mutation on the interaction
27 | N408A | with no effect
28 | E356A | with no effect
29 | N393E | with no effect
30 | N393K | with no effect
31 | T397E | with no effect
32 | R374E | with no effect
33 | R374A | with no effect
34 | E357K | with no effect
35 | E357A | with no effect
36 | A359K | with no effect
37 | A359E | with no effect
38 | D409E | with no effect
39 | D409A | with no effect
40 | A370K | with no effect
41 | G372A | with no effect
42 | S407K | with no effect
43 | D371K | with no effect
44 | D371A | with no effect
45 | D371E | with no effect
46 | T400E | with no effect
47 | L363E | with no effect
48 | N354E | with no effect
49 | N354K | with no effect
50 | N354A | with no effect
51 | I412R | disrupting interaction strength
52 | I412E | with no effect

Row | Variant | effect of a mutation on the interaction
53 | T381A | with no effect
54 | I377A | with no effect
55 | I377R | disrupting interaction strength
56 | L402A | disrupting interaction strength
57 | L402K | disrupting interaction strength
58 | L402E | with no effect
59 | L402C | disrupting interaction strength
60 | A379K | with no effect
61 | A398K | with no effect
62 | A398E | with no effect
63 | E362K | with no effect
64 | E362A | with no effect
65 | T406E | with no effect
66 | T406A | with no effect
67 | L352A | with no effect
68 | L352K | with no effect
69 | N358A | with no effect
70 | N358E | with no effect
71 | N358K | with no effect
72 | A361K | with no effect
73 | R353K | with no effect
74 | R353E | with no effect
75 | L367K | with no effect
76 | S390A | with no effect
77 | S390E | with no effect
78 | T386K | with no effect

Second part, the variant after the results:

Row | effect of a mutation on the interaction | Variant
79 | with no effect | V389A
80 | disrupting interaction strength | V389K
81 | with no effect | L387E
82 | with no effect | S405A
83 | with no effect | S405E
84 | with no effect | E351A
85 | with no effect | G392E
86 | with no effect | G392A
87 | with no effect | G392K
88 | with no effect | P366E
89 | with no effect | P366K
90 | with no effect | P366A
91 | with no effect | H399K
92 | with no effect | H399A
93 | with no effect | S388E
94 | with no effect | S388K
95 | with no effect | S365A
96 | with no effect | I411E
97 | with no effect | E369K
98 | with no effect | T395E
99 | with no effect | T395A
100 | disrupting interaction strength | N380E
101 | with no effect | N380K
102 | with no effect | N380A
103 | with no effect | H373A
104 | with no effect | I376K

Row | effect of a mutation on the interaction | Variant
105 | disrupting interaction strength | I376F
106 | with no effect | I376E
107 | with no effect | K360E
108 | disrupting interaction strength | K360P
109 | with no effect | Q396A
110 | with no effect | Q396K
111 | with no effect | P378K
112 | with no effect | T410E
113 | with no effect | T410K
114 | with no effect | T410A
115 | disrupting interaction strength | L383E
116 | with no effect | L383K
117 | with no effect | G375K
118 | with no effect | G375A
119 | with no effect | E401K
120 | with no effect | E401A
121 | with no effect | L391A
122 | disrupting interaction strength | I404K
123 | with no effect | I404E
124 | with no effect | H384A
125 | with no effect | H384K
126 | with no effect | H384E
127 | with no effect | E394K
128 | with no effect | E394A
129 | with no effect | N408K
130 | with no effect | N408E

Row | effect of a mutation on the interaction | Variant
131 | disrupting interaction strength | N408S
132 | with no effect | E356K
133 | with no effect | R403A
134 | with no effect | R403K
135 | with no effect | R403E
136 | with no effect | N393A
137 | with no effect | T397K
138 | with no effect | T397A
139 | with no effect | R374K
140 | with no effect | T385A
141 | with no effect | T385K
142 | disrupting interaction strength | T385E
143 | with no effect | Y355E
144 | with no effect | Y355K
145 | with no effect | Y355A
146 | with no effect | D409K
147 | with no effect | A370E
148 | with no effect | G372K
149 | with no effect | G372E
150 | with no effect | S407E
151 | with no effect | S407A
152 | with no effect | R382A
153 | with no effect | R382E
154 | with no effect | R382K
155 | with no effect | T400A
156 | with no effect | T400K

Row | effect of a mutation on the interaction | Variant
157 | with no effect | A364E
158 | with no effect | A364K
159 | with no effect | L363A
160 | with no effect | L363K
161 | with no effect | I412A
162 | with no effect | I412K
163 | with no effect | T381K
164 | with no effect | T381E
165 | with no effect | I377E
166 | with no effect | I377K
167 | with no effect | A379E
168 | with no effect | N368E
169 | with no effect | N368A
170 | with no effect | N368K
171 | with no effect | T406K
172 | with no effect | L352E
173 | with no effect | A361E
174 | with no effect | R353A
175 | with no effect | L367A
176 | with no effect | L367E
177 | with no effect | S390K
178 | with no effect | T386A
179 | with no effect | T386E
